Where a chain is given by its changes, count along the chain named. Numbers in names are those of the source.

Broadly, the Ki is the dissociation constant of the complex between target and ligand, obtained from inhibition or displacement. A higher Ki goes with weaker binding.

For this assay, the target named is Gαi/13 (N-terminally hexahistidine tagged chimera), AlF4−-activated. As to the kind of experiment: flow cytometry protein interaction assay. Background: In flow cytometry, cells or beads pass a laser one at a time.

B1: LARG RH/DH/PH-F1098D (domain or fragment)
chain: SPSTRIAPHIIGAEDDDFGTEHEQINGQCSCFQSIELLKSRPAHLAVFLHHVVSQFDPATLLCYLYSDLYKHTNSKETRRIFLEFHQFFLDRSAHLKVSVPDEMSADLEKRRPELIPEDLHRHYIQTMQERVHPEVQRHLEDFRQKRSMGLTLAESELTKLDAERDKDRLTLEKERTCAEQIVAKIEEVLMTAQAVEEDKSSTMQYVILMYMKHLGVKVKEPRNLEHKRGRIGFLPKIKQSMKKDKEGEEKGKRRGFPSILGPPRRPSRHDNSAIGRAMELQKARHPKHLSTPSSVSPEPQDSAKLRQSGLANEGTDAGYLPANSMSSVASGASFSQEGGKENDTGSKQVGETSAPGDTLDGTPRTLNTVFDFPPPPLDQVQEEECEVERVTEHGTPKPFRKFDSVAFGESQSEDEQFENDLETDPPNWQQLVSREVLLGLKPCEIKRQEVINELFYTERAHVRTLKVLDQVFYQRVSREGILSPSELRKIFSNLEDILQLHIGLNEQMKAVRKRNETSVIDQIGEDLLTWFSGPGEEKLKHAAATFCSNQPFALEMIKSRQKKDSRFQTFVQDAESNPLCRRLQLKDIIPTQMQRLTKYPLLLDNIAKYTEWPTEREKVKKAADHCRQILNYVNQAVKEAENKQRLEDYQRRLDTSSLKLSEYPNVEELRNLDLTKRKMIHEGPLVWKVNRDKTIDLYTLLLEDILVLLQKQDDRLVLRCHSKILASTADSKHTFSPVIKLSTVLVRQVATDNKALDVISMSDNGAQIYELVAQTVSEKTVWQDLICRMAASVKEQS
With B1, the Ki is 20 nM.

B2: LARG RH/DH/PH-E354K (domain or fragment)
chain: B1 chain with E14K, D758F
In turn, B2 displayed a Ki of 540 nM.

The values above are taken from publication PMC2735620.
